Assay results from PMC7239452.

Biological target: ERp29 (ER protein of 29 kDa; mouse, Min-6 insulinoma cells) (mouse (endogenous in Min-6)) (UniProt P57759)
Assay: co-IP; Min-6 lysate, non-denaturing; 50 ug lysate protein, 2 ul primary antibody 1 h, Protein G agarose 2 h at room temperature; precipitated Proinsulin quantified by Mercodia rat/mouse Proinsulin ELISA; controls: no antibody, anti-V5

fold precipitation of Proinsulin over the anti-V5 control: > 10 fold
Substance: Proinsulin (mouse, Min-6 insulinoma cells) (natural protein)
